Data taken from the supplement of paper PMC10567573.
± gives the standard deviation.

Assay: protein stability index of a GFP-peptide fusion (GPS, HEK-293T) (PSI 1-6); higher = more stable
[1] = treatment: DMSO, c terminus: a fixed tail appended
[2] = treatment: MLN4924 1 uM, 8 h, c terminus: a fixed tail appended
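Also: 24-mer peptide tiles fused after GFP, lentivirally expressed, FACS-sorted into six equal bins by GFP/DsRed ratio, decoded by Illumina sequencing, PSI is the read-weighted mean bin number.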

Sequence | protein stability index [1] | protein stability index [2] | protein stability index (treatment: DMSO, c terminus: native) | protein stability index (treatment: MLN4924 1 uM, 8 h, c terminus: native)
NVNRTTANNDHTVLSLACAGGHLA [ANKRD17] | 3.57 ± 0.3 | 3.7 ± 0.36 | – | –
NWLGRPSKVLSLQDLCCRTIVSCT [RAB40A] | 2.74 ± 0.08 | 2.88 ± 0.44 | – | –
NWLHRRLAGQFLEELRKFSSLCYK [MOG] | 2.5 ± 0.15 | 2.57 ± 0.27 | – | –
PASAPGEPRQRRLLLLDLLALYTP [ANKRD9] | 2.25 ± 0.071 | 2.02 ± 0.48 | – | –
PCGPNMSEVSCKKRDDYLEWPEYF [DCTD] | 3.56 ± 0.23 | 3.6 ± 0.26 | – | –
PCSPDSSSVCVQGRCIHAGCDRII [ADAMTS4] | 3.84 ± 0.58 | 3.67 ± 0.25 | – | –
PCVAESPTVHVEVHQRGSSTAKKE [TRIP13] | 5.42 ± 0.39 | 5.35 ± 0.087 | – | –
PDFNPEKHGSLNRYHNSHPLRERA [YJU2B] | 4.36 ± 0.21 | 4.37 ± 0.29 | – | –
PDKKKRPRRSLSISKNKKKASNSI [FAN1] | 4.56 ± 0.2 | 4.76 ± 0.068 | – | –
PDMETKLLFMTSRVRFGQQKRYQD [INTS3] | 2.92 ± 0.24 | 3.09 ± 0.32 | – | –
PDQAYDFLLKFLLVGDRDVGKSEI [RAB40A] | 2.46 ± 0.39 | 2.35 ± 0.3 | – | –
PEHGDRVAELFCRRCRRCVCALCP [TRIM14] | 3.29 ± 0.55 | 3.5 ± 0.1 | – | –
PELTPEEEQATKQFLEEINKWTVQ [PTPN9] | 5.01 ± 0.23 | 4.86 ± 0.12 | – | –
PEMNGNGAVAPMDFTTAAEDQPIN [NOL4L] | 5.35 ± 0.26 | 5.47 ± 0.15 | – | –
PEYTYGISNIDTTIEGTSDDLTVV [MFF] | 4.61 ± 0.15 | 4.56 ± 0.078 | – | –
PGGLVGSADVVSPSGHSDAQTLAM [PPFIA4] | 4.57 ± 0.22 | 4.43 ± 0.93 | – | –
PGKINCLRNCKTYQARKPLWFYNT [RHOBTB3] | 2.59 ± 0.41 | 2.76 ± 0.47 | – | –
PHRVLETRGHAISILFGFWTSFIC [SMIM2] | 2.46 ± 0.41 | 2.32 ± 0.18 | – | –
PIIYFNDYWNLQKDYYPINESLAS [CLPTM1] | 2.71 ± 0.85 | 2.06 ± 0.2 | – | –
PILQEGMDEEKLKQLNCVEISALN [DLC1] | 5.08 ± 0.15 | 4.87 ± 0.15 | – | –
PILSRSTSTGSAASSGSNSSASSE [SPRY1] | 5.42 ± 0.22 | 5.44 ± 0.19 | – | –
PKPEPPQLVLAYDYSREVNTTEEL [FEM1A] | 5.03 ± 0.19 | 4.94 ± 0.31 | – | –

Sequence | protein stability index [1] | protein stability index [2] | protein stability index (treatment: DMSO, c terminus: native) | protein stability index (treatment: MLN4924 1 uM, 8 h, c terminus: native)
PKTNEDFEFLYNALEFWRQEELTR [IQUB] | 2.63 ± 0.31 | 2.23 ± 0.43 | – | –
PLDAGEYCVPRGNRRRFRVRQPIL [BEX1] | 3.47 ± 0.42 | 3.63 ± 0.25 | – | –
PLGAGNLGPELIKESNANPIFMRK [DPCD] | 4.34 ± 0.27 | 4.54 ± 0.23 | – | –
PLLPPAMGTEPAPSAPEALHSLPG [TBX6] | 5.07 ± 0.074 | 5.06 ± 0.16 | – | –
PLWPGKSDVDQLYLIIRTLGKLIP [CDKL4] | 3.04 ± 0.39 | 2.34 ± 0.61 | – | –
PNEAMVVSGFCRSPPVMVAGGRVF [FLOT1] | 2.2 ± 0.2 | 2.42 ± 0.26 | – | –
PNILFYASTVLKSVGFQSNEAASL [SLC2A12] | 2.25 ± 0.33 | 2.38 ± 0.15 | – | –
PPRTIKRTRRRLSRNRDPGRLILS [PWWP2B] | 4.37 ± 0.27 | 4.52 ± 0.35 | – | –
PPSALDQLSRLNITYPMLFKLTNK [UFD1] | 2.48 ± 0.27 | 2.96 ± 0.095 | – | –
PPTINGIKGLQRKERLKPAHIHLQ [KRT34] | 3.34 ± 0.15 | 3.59 ± 0.46 | – | –
PPVTDLGELRRRPGDMKTKMELLI [CPOX] | 3.2 ± 0.36 | 3.03 ± 0.3 | – | –
PRPRPVSLSLRLPHQPVTAITRVS [SMTNL2] | 3.42 ± 0.24 | 3.58 ± 0.27 | – | –
PRRCHSAPPQGSCGDELPWTLQRR [PLEKHN1] | 4.79 ± 0.15 | 4.7 ± 0.23 | – | –
PRRVCVGGKRRRDDISVDSLDFTK [PPP2R2C] | 3.79 ± 0.16 | 3.9 ± 0.38 | – | –
PRSHFTTPAPMSSAWKTVACGGTR [MYBL2] | 2.77 ± 0.32 | 2.84 ± 0.17 | – | –
PRTNEWTYVAKMSEPHYGHAGTVY [KLHL13] | 2.44 ± 0.21 | 2.61 ± 0.24 | – | –
PSPEPAGRRAALYVHWPYCEKRCS [RSAD1] | 2.78 ± 0.26 | 3.02 ± 0.41 | – | –
PTLAKFSPYLGQMINLRRLLLSHI [PRAME] | 2.33 ± 0.42 | 2.15 ± 0.11 | – | –
PTLWTEQVKSRQNKTNKNSVSSCD [SMOC2] | 4.81 ± 0.28 | 4.84 ± 0.12 | – | –
PTSPVQGTTPQISPSTLIGSLRTL [HDAC6] | 3.77 ± 0.22 | 3.79 ± 0.26 | – | –
PVAMRVAKLAINQGMEVDLVTGLA [AUH] | 2.65 ± 0.29 | 2.92 ± 0.5 | – | –
PVENIPEIILYWKHSTIFDVGENL [SLC25A25] | 2.37 ± 0.41 | 2.02 ± 0.44 | – | –

Sequence | protein stability index [1] | protein stability index [2] | protein stability index (treatment: DMSO, c terminus: native) | protein stability index (treatment: MLN4924 1 uM, 8 h, c terminus: native)
PVESHIQKNKKILKSAKDLPPDAL [KMT2E] | 4.86 ± 0.24 | 4.71 ± 0.44 | – | –
PVSGKAVFMEFGPPNQQMSPSPMS [DLX1] | 3.5 ± 0.26 | 3.55 ± 0.41 | – | –
PYARIQQSRRQCHAEEDQSQVPEA [SMIM2] | 5.3 ± 0.19 | 5.19 ± 0.14 | – | –
QALEQFAAAAAHSTPVRREVTDKE [EPB41L3] | 5.02 ± 0.22 | 4.89 ± 0.41 | – | –
QDDSKPTQRQFTILNFNDLMSSAV [AASDHPPT] | 2.86 ± 0.31 | 2.97 ± 0.28 | – | –
QEAPLQDDSCLNNDIPHSIPLEQG [FAN1] | 5.25 ± 0.34 | 5.27 ± 0.17 | – | –
QERSRVLNQVADLLEQSLEEFAQA [ALDH8A1] | 3.94 ± 0.28 | 4.26 ± 0.19 | – | –
QFHALQSKLEERFGPDSKSSALAC [NCF4] | 3.5 ± 0.28 | 3.6 ± 0.54 | – | –
QFYGYLSQQQNMMQDYVRTGTYQR [CARM1] | 2.47 ± 0.086 | 2.72 ± 0.22 | – | –
QGDSADETTAHKTEEENSDSDSD [CMTM3] | – | – | 5.6 ± 0.2 | 5.7 ± 0.23
QHVPEELDLSSSSQMSPLSLYGEN [ATF6] | 4.97 ± 0.19 | 5 ± 0.18 | – | –
QICAQVSFFFPPVNLPISFFRKLL [NLN] | 2.76 ± 0.039 | 3.45 ± 0.17 | – | –
QIGCKLPDDYRCSYRIHNGQKLVV [FBXO3] | 2.06 ± 0.26 | 2.18 ± 0.24 | – | –
QIKCIELKSELGRKWHKASNYIFV [P2RY14] | 2.72 ± 0.93 | 2.67 ± 0.47 | – | –
QINDGMGGDGDDMEIFMEEMREIR [BEX3] | 4.81 ± 0.17 | 4.75 ± 0.28 | – | –
QKLDAFLQPLSKPLSSQPQAIVTE [MLH1] | 4.17 ± 0.3 | 4.21 ± 0.21 | – | –
QKLREESAARVVLTSLLACLPAGP [DUSP5] | 2.15 ± 0.26 | 2.06 ± 0.13 | – | –
QKQRLREILEQQQQERNDTNFHGV [ZNF277] | 4.53 ± 0.3 | 4.59 ± 0.23 | – | –
QLAQLRCEMEQQSQEYQILLDVKT [KRT16] | 3.34 ± 0.076 | 3.55 ± 0.28 | – | –
QLKWASWELHSLRHCDDDGRTENG [ZNF24] | 3.83 ± 0.31 | 4.04 ± 0.21 | – | –
QLLKNNEKLITWLNKELNENQLVR [SASS6] | 1.88 ± 0.62 | 2.08 ± 0.38 | – | –
